Assay results reported in article PMC9687926, “High-Resolution Genetic Mapping Combined with Transcriptome Profiling Reveals That Both Target-Site Resistance and Increased Detoxification Confer Resistance to the Pyrethroid Bifenthrin in the Spider Mite Tetranychus urticae” (Biology, 2022).

Legend:
purified protein [1] = substrate: CC(=O)Oc1ccc([N+](=O)[O-])cc1; test: purified protein; format: biochemical, Tetranychus urticae; settings: 0.1 M phosphate buffer pH 7.5, 30 °C, 1 µg enzyme, 1% acetone
purified protein [2] = substrate: CC(=O)Oc1cccc2ccccc12; test: purified protein; format: biochemical, Tetranychus urticae; settings: 0.1 M phosphate buffer pH 7.5, 1 µg enzyme, fast blue RR

B1: CCE58 (Tetranychus urticae) (protein)
chain: TISENVEPELTLSSGSIRGTSVDFRGVKVYQFLGIPFAEPPLNELRFQKPVSKKPWNGVLSVNKWGSACMQPVFPGYNTELHLNEDCLVLNVFTTEAAFQDKQNGKKHKLRPVMVWIHGGSFNYGSANTPDQHDGTPITGLKDVIIVSINYRLGSLGFLQLPEAGVPGNMGLWDQQLALKWVKDNIEHFGGDPNKVTIFGESAGSMSVSAHLVSPQSKGLFTNAIMQSGSIYDLDRWTQPGLVANFTSKIGCISDNYKSCLSNYRFGQFPEADRLTFWPTVDGEFLPHRAEELVSNHTVDPNINVLLGTNANEGAFMLLMKDMVTFHPLNPINLTIPHAKYIFGKLFGKTLIDFYSERYLASLSADDSDSIRLAVTQALGDSIFTCPTYATGRDLIASGVPNVYGYVQTQKPTHTLISVSGQAKWMSNIASHADTFPMVFGHPFNKLDKFKNEDVVLSFLMMDIWTKFAKDGKPPQISHQEWLPWNLSDPIPYPTMVLNSNKIGLIETKSAEFCAKNWPFPLENYYSMDSESGVYAEIE
notes: full-length MR-VL allele, signal peptide removed, codon-optimised, pPICZalphaA secretion in Pichia pastoris X-33, 6xHis tag, Ni-NTA purified, about 75 kDa on SDS-PAGE
- Km (purified protein [1]): 0.379 (±0.028) mM
- Km (purified protein [2]): 0.446 (±0.051) mM
